Residue numbers refer to the chain shown, from its start. Numbers in names are those of the source.

T1: Recombinant CD25 protein (IL-2R alpha chain) (human, UniProt P01589 22-240)
T1 construct: IL-2 receptor alpha chain (CD25, IL2RA), recombinant, R&D Systems cat #223-2A/CF; source: bought: R&D Systems (cat #223-2A/CF)
T1 sequence (looked up): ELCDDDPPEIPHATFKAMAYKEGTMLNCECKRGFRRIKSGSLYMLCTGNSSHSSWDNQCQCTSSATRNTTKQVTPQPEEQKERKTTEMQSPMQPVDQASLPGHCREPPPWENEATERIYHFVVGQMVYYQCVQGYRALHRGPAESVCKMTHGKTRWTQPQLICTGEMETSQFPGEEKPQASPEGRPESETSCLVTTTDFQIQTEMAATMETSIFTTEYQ

T2: recombinant human IL2RB-huFc (human) (UniProt P14784)
T2 sequence (chain, minimally biotinylated): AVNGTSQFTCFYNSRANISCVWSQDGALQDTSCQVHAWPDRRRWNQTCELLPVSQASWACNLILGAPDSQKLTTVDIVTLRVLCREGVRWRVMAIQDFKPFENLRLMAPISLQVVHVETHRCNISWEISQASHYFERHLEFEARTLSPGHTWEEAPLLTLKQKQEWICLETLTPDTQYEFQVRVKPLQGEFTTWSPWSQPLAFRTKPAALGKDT

B1: IL-2 mutein D20A H16R E61Q (Fc fusion) (Fc fusion, human, UniProt P60568 21-153, looked up)
chain: APTSSSTKKTQLQLERLLLALQMILNGINNYKNPKLTRMLTFKFYMPKKATELKHLQCLEQELKPLEEVLNLAQSKNFHLRPRDLISNINVIVLELKGSETTFMCEYADETATIVEFLNRWITFCQSIISTLT
notes: human interleukin-2 (IL-2), fused to the Fc of human IgG1 (N297G); H16 is H36 in P60568); Homodimeric Fc fusion, bivalent for IL-2; source: CHO K1, stably integrated, purified from culture media (MabSelect SuRe, desalting, Superdex 200 SEC)
B2: IL-2 mutein V91K D20A M104V (Fc fusion) (Fc fusion, human, UniProt P60568 21-153, looked up)
chain: B1 chain with R16H, Q61E, V91K, M104V
notes: as for B1

The first test concerns the target T1, Recombinant CD25 protein (IL-2R alpha …). In words: SPR; CD25 amine-coupled (EDC/NHS) to a CM5 chip, about 90 RU, Biacore T100; IL-2 Fc fusions as analytes, 3-fold series from 500 to 6.2 nM in PBS + 0.05% Tween-20, 75 uL/min; steady state RU levels fitted globally to a 4-parameter logistic function to derive EC50. The following applies: both partners purified.
As to B1, the concentration giving a half-maximal response (EC50) was 157 nM.

As to B2, the concentration giving a half-maximal response (EC50) turned out to be 6 nM.

The target in the next test is T2, recombinant human IL2RB-huFc (human).
Test: not given
Conditions: not given
For the molecule “IL-2 mutein D20W (Fc fusion) (from UniProt P60568 21-153)”, the pSTAT5 MFI EC50 in CD25hi Foxp3+ Treg cells, human whole blood assay (AVG EC50, n = 3 donors) was determined as 20.9 nM. Still for that read-out and setting: the figure for “IL-2 mutein H16E M104L (Fc fusion) (from UniProt P60568 21-153)” is 62 pM; for “IL-2 mutein D20A (Fc fusion) (from UniProt P60568 21-153)” it is 1.21 nM; for “IL-2 mutein V91K D20A M104V (Fc fusion) (from UniProt P60568 21-153)” it is 4.76 nM. Same read-out and setting: then “IL-2 mutein D20A H16R E61Q (Fc fusion) (from UniProt P60568 21-153)”, with 20.7 nM; and “IL-2 mutein N88K (Fc fusion) (from UniProt P60568 21-153)”, with 23.3 nM. Same read-out and setting: then “IL-2 mutein D20G (Fc fusion) (from UniProt P60568 21-153)”, with 6.24 nM; and “IL-2 mutein H16E E61Q (Fc fusion) (from UniProt P60568 21-153)”, with 2.34 nM. For “IL-2 mutein H16E (Fc fusion) (from UniProt P60568 21-153)”, the pSTAT5 MFI EC50 in CD25hi Foxp3+ Treg cells, human whole blood assay (AVG EC50, n = 3 donors) came out at 67 pM. The same measure, in the same setting: then “IL-2 mutein D20A M104T (Fc fusion) (from UniProt P60568 21-153)”, with 1.67 nM; and “IL-2 mutein N88D (Fc fusion) (from UniProt P60568 21-153)”, with 0.418 nM. On the same count and under the same terms, the figure for “IL-2 mutein V91S (Fc fusion) (from UniProt P60568 21-153)” is 89 pM.

The record behind these values is article PMC7291599, “Defining the Threshold IL-2 Signal Required for Induction of Selective Treg Cell Responses Using Engineered IL-2 Muteins” (Frontiers in Immunology, 2020).
